Results: the DeepSol protein solubility set

Experiment: soluble on expression in E. coli; label from the status in PepcDB or PDB records

Sequence | soluble on expression in E. coli
MGSDKIHHHHHHMAKKKVIFECMACGYQSPKWMGKCPNCGAWNQMEEIVEKAANPKHGVKTKELAGKVQKLNSIKHETTPRVLTDSAEFNRVLGGGIVSGSLVLIGGDPGIGKSTLLLQICASLSQKKKVLYITGEESLSQTKLRAERLDEDSSELQVLAETDLEVIYQTVKEEQPDLLVVDSIQTIYHPEISSAPGSVSQVRESTQSLMNIAKQMNIATFIVGHVTKEGQIAGPRLLEHMVDTVLYFEGDEHHAYRILRAVKNRFGSTNEMGIFEMKQSGLKGVNNPSEMFLEERSTNVPGSTIVATMEGTRPLLIEVQALVTPTTFNNPRRMATGIDHNRLSLLMAVLEKKENYLLQQQDAYIKVAGGVKLTEPAVDLSVIVATASSFKDKAVDGLDCYIGEVGLTGEVRRVSRIEQRVQEAAKLGFKRVIIPKNNIGGWTYPEGIQVIGVTTVHEALSFALHS | not soluble
MASKAVILAGGLGTRLSEETIVKPKPMVEIGGKPILWHIMKMYSVHGIKDFIICCGYKGYVIKEYFANYFLHMSDVTFHMAENRMEVHHKRVEPWNVTLVDTGDSSMTGGRLKRVAEYVKDDEAFLFTYGDGVADLDIKATIDFHKAHGKKATLTATFPPGRFGALDIQAGQVRSFQEKPKGDGAMINGGFFVLNPSVIDLIDNDATTWEQEPLMTLAQQGELMAFEHPGFWQPMDTLRDKVYLEGLWEKGKAPWKTWE | soluble
MGSDKIHHHHHHMNRMNDALELVKKLRTFLPAESVLHETEDVRPYECDGLSAYRQTPMIVALPRTEDEVAGILKICDALKIPVVARGAGTGLSGGALPHPQGVLLSLAKLKNILEIDPAARTARVQPGVRNLAISEAAAPYGLYYAPDPSSQIACSIGGNVAENSGGVHCLKYGLTVHNILKLRVLTIEGELLEMGADGLDAPGYDLLALMTGSEGMLGIVTEVTVKLTPRPEKAQVVLASFDDIRDAGNAVANVIGAGIIPAGMEMMDKITTGAVEEYVHAGYNVEAAAILLCESDGAEEEVAEEIERINEIMRQSGATEVRISRDEAERARFWAGRKAAFPAAGRVSPDYYCMDGTIPRKNLASVLTGIEALSAEYGLRCMNVFHAGDGNLHPLILYDANHPGELELTEEFGAKILRMCIEAGGTITGEHGVGIEKINQMCSQFKTGELEMFHAVKAAFDPASLLNPGKAIPTLRRCAEQGAMHVHRGKEKFPELPRF | not soluble
GPGSMELNQLELFVASTEHTRSDAWRYLRRLRVLDCKIEEGFDRLHEIAVQLSGTDSDGNLVDNQGNGTLQPDRKKRGRPPLCKNAFTATPYNVGQSPDSSVLLVDPAVANLHEEFRKHSRSVKRYALEREQIAEELVASGKELTEYLEARMREFRATFSISD | soluble
PPAVSDIRVTRSSPSSLSLAWAVPRAPSGAVLDYEVKYHEKGAEGPSSVRFLKTSENRAELRGLKRGASYLVQVRARSEAGYGPFGQEHHSQTQLD | soluble
MSLADTIIKNAKIVDVYNARIIEGTLAIADSRFLGIDAAYTADNVINAHGQYVVPGLIDPHIHIESANVSPAVFGSLVTPHGTTTILADPHEIVNVAGMRGLEYMVASAKNTALDIKYTMPSCVPAANPTLETSGAVITADEIKQSYDQGLTYGLAEFMNYPGVVNADDGVLDELLVSLNARKMIDGHSPALHGQGLNAYAAAGVHNDHECTQVDEMLDRISRGMYVYLRYGTVSKNMPTLLKGVTPQNARFCCLCGDDLQSVTLRETGHLDESIRVAIQNGIDPLTAIQMATINTAQCTGLSDRGGIAPGLKADFLLVDDLEHFNVNQTFIDGQKIAANGAYLLPTDDSVAGFDDLLETVHLDNFSADQLKLNLTSDKAHVIGLQSISRTQNLVLPVAHDAEGDFHYKPSEDIVKVAVVERHHLTGNVGVGLLSGFGLQNGAIATSIGHDSHNLVVVGTNDADMVVAIDALKACQGGGVAVQNGQVIATLPFVIGGLMSTEPIDSLIAHQKAFNTICHEQLNVTAQFDPIMKLGAMPLDVIPNLRITDKGLVDVTKFEIIDINAEGHHHHHH | soluble
MGSDKIHHHHHHMITAEECRTYKEFVDLYQSYLYPLLGARLSRMYSPKNKVIIDMGTGPGYLSIQLAKRTNAHVHAVDINPAMHEIAQEEAKKSGVSSLISFDLEDVHHLSYADQYADFIVSYSCLHHWEDVVKGLKECYRVLAPGGKIVILDTFNPQGSHLEIMRKQIKEPEYFRFVREAFEESYSFEDIHQFVQDAGIPNYSLETFHFLPEDFIESLDELEDAPLWEQNDQSTDHEIESVTWMLTIEKEKEGAL | not soluble
MSLTKSSKYDTAFLKENMMGPNAIKIIEELLESLKLEEGMRVLDLGCGKGLTSIFLAKEYGVTVFATDLWISATENYERIKSMGLEDKIIPIHAEAHDLPFAQEYFDVAISVDAYHYFGIEEDYLTKHLAPLVKKGGKIAVAVPGLKKEFENGVPEKLQPYWFEDMTLTLHSLDWWYNLWKKADSVSIEECKELKCLEETWQDWLSCDNDYARRDIGMMEAEGGNYFNLVSIIATRLEGHHHHHH | soluble
MSLIREQVVRPLNAMVDASEKIKNRNFDVMLEETSSTEMGILSRTFNSMAGDLGKLYRGLEHAVNEKTNKLQMANQSLQVLYHSSQELTASRITASNFQTILRHWVALEGICALRLEIEEEAGKPLILQEGKPSGAVMLQTPLTLDGHHLGFLYWEAGSPEPDRALIDNFALILSRAIYYNQAQRQAEQLLLMEERATIARELHDSLAQSLSYLKIQLTLLKRSVTPLKSDGDLSKTENIIREIDKGLSDAYTQLRELLTTFRLTLTEGSFGQSLLGMLTQLSGQTDAKIELNNALSSIALDAHQQVHLVQLIREATINAIKHAKATKIKVNCQEQQGRVQVTIEDDGVGFDLQDHKINHYGMSIMQERAARLRGELKVESAPGKGCKVVLTYQQSEEKNKNEEGHHHHHH | soluble
MERILLVLDDTGRGEIAFQKLKKLAEDGLRGEVYILYIREMEVPPFVPEEKELAAYHRLMTQSMKKLEGFKNQLEKAGLKVSDVSVVFGKYADRLLLVEKQIKPDLIVVGFKGGLLKRVIGGFFGKDPCEVLLKKSKASLLICRG | not soluble
MKIAVVGAGLTGLKTAKELAEHAKVVVFEPDDVGGLVATFREFSIEKFYHHCFRDDAFLLEEIKRCGLKSKLVWKIAKTGFAANGKIYPLNTPFEILRYPLLTFGEKIRLARFTLKSRKLNYEDFDDVGVSEGIREELGEGLLERFFMPLLRSKFGENAEKVSYAWLLGRVAIRSNRKYSGEEIGYIRHGFQQLVDKMAEGLEIRRERARIRKNARWDVNGEDFDAVVYTAPLSELGELAEKLGIPEVRYQSSVCALIGAEETLTENIYWTNIADKMSFGAVIEHTNFMPFEDYGIHLMYLAAYSTPDGWLFNLSDKEIEKLFLSDLRKLGFKTESVRFVRVFKAKYSGPIYEKGYRRKITPYRVAEGFYVAGMTSRPNYPERSMNGSIRAGKEVAEQVKEDLLLEHHHHHH | soluble
MSLRLYFVRHGKTQWNLEGRLQGSKGDSPLLKESIEQVSELGHYLSDTHFDLVLSSDLPRAKKTTELIMESQKTKAKITYTKDLREWQLGKLEGQKLSIIQAIYPKEMDAFRHNLANFRANNFQAESVYHTTKRVADLVRTLKDSSMKNVLLVGHGANLTASIRSLLGFEPGLLRKAGGLDNASVTILETDDCEHFTLKSWNDTSYRTQVNKISEGHHHHHH | soluble
AIAMWQDQPMPSMDLVKNAFWNYVSQATLTAEETLQMIRNSELGQEINDRISKSTDAINKYTLAIQSQVTPLTQELLTKLSKEADQLKLSLEQEITSAQTQLKPYVEELKVDIEEQIERLKKDVAPYAEALNPEAMRLTLVQRAEELKAKLETSLMAMGPQSEELKQKLEQHFVEFQMSMSPLAESFQSQLAQRSQELQKNLAPYSEELSKLDPLAQDLKDQLTALWESFAKDKQS | soluble
MAHHHHHHMALIQTAHDACSRKVHCVRKGYLNDPFVSFFEKDHTIVNSPLMNRGTWLRTTAFENCVRGFATAAGQPIQVINFGAGMDTLYFRLKHSDPQFPVQKFMELDLADLVAEKERIIKRHSEMHSLVGSQYVLVSCDLYDAKGVAKALKEHLHGGTPTIMIAEMVFVYIEGSVTTNLLRTVMSDVIEPGTKTMLVTYDAIQPFDRFGKVMVENLQHFGADFKGIGDFPTPEAHAGRCSELGFKAVKSVTMKNLYLGVPRQIQIRLNKLEMIDDWEEWNLMHEHYCFVVASTEDAPLPKLF | not soluble
MSSVMSHTGGKEGTYPGTRASATMIGDDETNWGTKSLAILDMPFTAVMDTLLLPWDVFRKDSSVRSRVEKSEANAQATNAVIPPARMPDNLEHHHHHH | not soluble
MRDTRGGDQGGGLEAQGGAEARNALPPETIVLILPWEPGSRRQPLKAGQVILKWGGYTMPYLVGPKGQVVIAKEIRERLGIRPGWRVIQRLVDDHVELYFLPPPHKASLKGLLRDKIRGTVSEEAWAEARERAWRASWSEEGEG | soluble
MEIYLVFVDAASNSNKFWTAKVEQNQLTVQWDRVGYKAQTKVHQFTSQAQAANKYNNLVFEKKAKGYQESQPQIESCGVVDIRRAMQLLNGLRSYVTNRNFNADYINLLNQYLKIIPTPLGMQLEPYRIFTSVADVDHQRELLSSLIPATPVAVTQAKQMPESQEKIVSLRGIHKNLWRHFLEHHHHHH | not soluble
MSLSTIEDVAKLAGLSRTTVSRVINNHPYVSDEKKKRVQLAMKHLGFVPNSAARRLRKQKTETIAVLVPRITNPFFSRFIEAIEIAASEHKYKLIICQTRYLPEKEMEYLQLLSTKQVDGIILCSLENQWEDVEPYLQHGPIVLCNEYIEEANVPTVKFDHAQGAYIAAKHVLEQGYRNLIFCRGNETKVVSQQRKMGFLRAITEKSRQVEAIDFLENAFSWEDGKRIFHEVLKDKKNPTAILAGGDEVAAGIISEAKRHDWSIPDDLAVIGFDNQILSQITEPGITTIEQPIDEMARKVVDLMMDKIHTKNYRKKELYEFELELLVKGSTMKDTMLLAEGHHHHHH | not soluble
MDFTIPLQLQSNTPIYLQIYEYIKAEIIQGTISVGTRLPSHRNLASQLNISRITVESAYQQLLAEGYAESKPKRGIFVANFDIDIIPNKKRNAAKKTNNLIEEKFEYDCSQGLIDQNAFPITNWKRALQESILIYENALFAKEDPQGEFALREHISTYLYHSRGVHSSPDQIVIGAGTQPLLWLLLQLLGPTKEYGIENPGFHRIHAIIKSCDRQIHPIPLDEKGIDISSLYNTNSNVAYVTPSHQFPLGIIMPLSRRLELLKWANDCNGYIIEDDYDGEFRYAGKPIPSLQSLDSNERVIYMGTFSKSFLPSLRMGYVVLPPHLLKTYQELHGIFKQTVATIQQLAFANFIQSGNWERHLNRSRTLYKRKHHTLVKSIMKEMGANVQILGEQSGLHIVLCVNNSMNENELIESAKKQSVKLYPLSPYDFVNDLRKESYVLLGFGSIPENKIETLATLLKDAWFPSCKETC | not soluble
